Results taken from patent publication US20140037648A1.

Tests used:
[1] = biological target: stabilized form of the full-length pre-fusion RSV F protein (RSV); experiment: surface plasmon resonance
[2] = biological target: F protein of RSV 9727/2009 (B, Pavia IT, 2009; B/9727/09) (RSV (9727/2009)); experiment: cell-based or functional assay
[3] = biological target: F protein of RSV 9736/2009 (B, Pavia IT, 2009; B/9736/09) (RSV (9736/2009)); experiment: cell-based or functional assay
[4] = biological target: F protein of MPV I-PV-03/01-6621 (A1, Pavia IT, 2001; A1/6621/01) (MPV (I-PV-03/01-6621)); experiment: cell-based or functional assay
[5] = biological target: F protein of RSV Randall (A, Chicago US, 1958; A/Randall/58) (RSV (strain Randall)); experiment: cell-based or functional assay
[6] = biological target: F protein of RSV A/9846/09 (RSV (A/9846/09)); experiment: cell-based or functional assay
[7] = biological target: F protein of RSV 9847/2009 (B, Pavia IT, 2009; B/9847/09) (RSV (9847/2009)); experiment: cell-based or functional assay
[8] = biological target: F protein of RSV A/9835/09 (RSV (A/9835/09)); experiment: cell-based or functional assay

Palivizumab (antibody)
Kd [1]: 2 nM
Neutralization IC50 [2]: 0.275 mg/L
Neutralization IC50 [3]: 0.092 mg/L
IC50 (ng/ml), microneutralization [4]: > 20000 ng/mL
Neutralization IC50 [5]: 0.44 mg/L
Neutralization IC50 [6]: 0.283 mg/L
Neutralization IC50 [7]: 0.209 mg/L
Neutralization IC50 [8]: 0.284 mg/L
